Test results reported in US20190085028A1.

Biological target: NMDA receptor on rat hippocampal neurons (E18 Sprague Dawley primary culture) (rat), P35439
Assay: cell-based or functional assay

B1: Peptide SEQ ID NO: 3 (…) (peptide)
peptide: GEDDYQDAQDLIRDKSN
In the case of B1, the IC50 of inhibition of NMDA receptor-evoked current (dose-response curve, FIG. 3H) is reported as 156 µM, the inhibition of NMDA receptor-evoked current (whole-cell patch clamp), 10 µM peptide is reported as 14% and the inhibition of NMDA receptor-evoked current (whole-cell patch clamp), 100 µM peptide is reported as 40%. It also gave an inhibition of NMDA receptor-evoked current (whole-cell patch clamp), 500 µM peptide of 66.5%.
